PMC8752512 (Journal of molecular biology, 2021)

Biological target: Fgr SH3 domain (human, UniProt P09769 77-138, uniformly 15N-labelled)
Test: NMR titration

Kd: 347 µM
Binder: PPTPNPPRPP [arrestin-3 aSwI peptide (PPTPNPPRPP)]
